In paper PMC9449670 (2022):
Where no end group is shown, it is not given here.

Legend:
[1] = molecular target: T1, GsMTx4 (Grammostola spatulata, UniProt Q7YT39, not fully specified); assay: inside-out patch clamp dose-response (Hill fit, -50 mV)
T1 chain: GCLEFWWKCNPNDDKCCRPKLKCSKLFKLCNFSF

[2] = molecular target: T2, Pept 02 (GsMTx4 loop2-derived peptide) (Grammostola spatulata, not fully specified (bridges); printed as Trp-Lys-Cys-Asn-Pro-Asn-Asp-Asp-Lys-Cys; cysteine pairing not given here); assay: as above
T2 chain: WKCNPNDDKC

B1: SAKcaC (stretch-activated BK channel) (protein)
chain: not shown
Kd [1]: 47.2 nM | Kd [2]: 23.8 nM
